Experimental data: US20050084489A1, “Methods of preventing or treating disorders by administering and integrin alphanubeta3 antagonist in combination with an HMG-CoA reductase inhibitor or a bisphosphonate” (priority 2002, published 2005)

Key:
mouse integrin αVβ3 = molecular target: T1, mouse integrin αVβ3 (Mus musculus, UniProt O54890); test: Antibody binding to wild type mouse integrin αVβ3
T1 sequence (O54890 26-787): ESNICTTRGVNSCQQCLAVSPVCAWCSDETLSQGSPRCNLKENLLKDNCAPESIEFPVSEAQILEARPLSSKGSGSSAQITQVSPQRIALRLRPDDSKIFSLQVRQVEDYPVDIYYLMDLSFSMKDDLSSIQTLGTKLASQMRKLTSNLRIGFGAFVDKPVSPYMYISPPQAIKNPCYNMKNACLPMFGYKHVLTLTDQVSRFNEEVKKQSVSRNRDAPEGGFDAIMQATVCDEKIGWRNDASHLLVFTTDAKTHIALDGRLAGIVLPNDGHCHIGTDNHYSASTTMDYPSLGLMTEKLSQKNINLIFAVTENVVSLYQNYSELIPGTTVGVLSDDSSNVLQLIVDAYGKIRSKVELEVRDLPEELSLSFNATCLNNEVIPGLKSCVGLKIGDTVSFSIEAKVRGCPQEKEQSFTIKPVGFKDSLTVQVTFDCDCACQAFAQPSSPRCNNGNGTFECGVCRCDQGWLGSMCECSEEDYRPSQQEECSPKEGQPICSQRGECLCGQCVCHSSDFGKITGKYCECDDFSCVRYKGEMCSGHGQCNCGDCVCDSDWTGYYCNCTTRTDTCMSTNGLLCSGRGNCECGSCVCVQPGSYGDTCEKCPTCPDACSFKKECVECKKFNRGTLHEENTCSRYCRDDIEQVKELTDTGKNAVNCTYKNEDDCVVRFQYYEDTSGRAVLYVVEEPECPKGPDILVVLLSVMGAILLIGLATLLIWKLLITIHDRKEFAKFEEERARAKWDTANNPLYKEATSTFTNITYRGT
T1 sequence (P43406 31-885 partner limits assumed): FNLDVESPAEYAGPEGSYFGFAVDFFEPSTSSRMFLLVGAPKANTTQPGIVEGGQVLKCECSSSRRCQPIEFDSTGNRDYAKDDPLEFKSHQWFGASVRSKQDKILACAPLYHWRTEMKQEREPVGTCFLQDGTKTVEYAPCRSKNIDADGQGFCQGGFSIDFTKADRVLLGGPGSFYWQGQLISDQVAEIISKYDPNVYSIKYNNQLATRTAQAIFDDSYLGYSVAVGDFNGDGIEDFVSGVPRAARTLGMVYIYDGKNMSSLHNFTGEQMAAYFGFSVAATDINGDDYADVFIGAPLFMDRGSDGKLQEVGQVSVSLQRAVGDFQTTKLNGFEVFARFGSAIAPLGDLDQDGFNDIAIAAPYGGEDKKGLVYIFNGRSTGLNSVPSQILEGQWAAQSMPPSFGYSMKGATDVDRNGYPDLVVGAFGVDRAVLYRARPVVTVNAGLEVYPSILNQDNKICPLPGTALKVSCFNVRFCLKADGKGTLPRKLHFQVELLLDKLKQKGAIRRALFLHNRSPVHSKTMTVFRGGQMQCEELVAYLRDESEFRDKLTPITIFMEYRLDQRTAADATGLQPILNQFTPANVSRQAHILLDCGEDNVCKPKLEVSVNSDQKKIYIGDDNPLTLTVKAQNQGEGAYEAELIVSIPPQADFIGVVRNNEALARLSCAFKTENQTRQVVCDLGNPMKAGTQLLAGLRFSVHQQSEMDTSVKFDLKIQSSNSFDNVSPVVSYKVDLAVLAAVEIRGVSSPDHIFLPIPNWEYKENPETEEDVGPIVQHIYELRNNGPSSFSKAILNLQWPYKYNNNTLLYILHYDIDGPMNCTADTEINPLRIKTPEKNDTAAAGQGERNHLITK
T1 sequence (P43406 887-1044 partner limits assumed): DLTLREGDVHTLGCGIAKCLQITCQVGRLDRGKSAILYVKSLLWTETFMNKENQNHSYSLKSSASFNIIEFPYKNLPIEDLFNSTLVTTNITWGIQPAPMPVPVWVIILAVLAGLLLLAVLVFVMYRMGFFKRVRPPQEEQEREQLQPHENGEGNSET
Description: (§1) The invention encompasses methods for identifying antagonists that are immunospecific for integrin αVβ3, particularly for antibodies that specifically bind to the same epitope as VITAXIN® and/or LM609. […] In certain embodiments, amino acid substitutions are made in the subunits of integrin αVβ3, for example to change the ligand specificity of the integrin αVβ3 and/or disrupt the heterodimerization of the subunit chains. Preferably the integrin αVβ3 is human. In specific embodiments, such amino acid substitutions disrupt the specific interaction of certain antagonists of integrin αVβ3 with a particular integrin αVβ3 epitope. In a preferred embodiment, the amino acid substitutions are made within regions of an integrin subunit that confers ligand binding specificity, preferably ligand binding specificity of LM609 and/or VITAXIN®, particularly residues 164-202 of human β3. Alternatively, mouse β chain residues corresponding to residues 164-202 of the human β3 chain are replaced with the residues 164-202 of the human β3 chain. Such mouse-human chimeras can be used to screen for antagonists that bind to the region 164-202 of human β3 but not to mouse integrin αVβ3.
(§2) In addition, the invention provides methods for identifying monoclonal antibodies that bind to the heterodimerized αVβ3 but not the αV or the β3 chains when not included in a heterodimer. […]

[1] = molecular target: T2, modified mouse integrin αVβ3 (mouse-human chimera, human β chain residues 164-202) (Mus musculus, UniProt O54890, A208T/I198L/K199E/N204D/N207T/Q196E/S226T); test: Antibody binding to modified mouse integrin αVβ3 carrying amino acids 164-202 of the human β chain; conditions: mouse β chain region replaced with amino acids 164-202 of the human β chain
T2 sequence (O54890 26-787 Q196E/I198L/K199E/N204D/N207T/A208T/S226T): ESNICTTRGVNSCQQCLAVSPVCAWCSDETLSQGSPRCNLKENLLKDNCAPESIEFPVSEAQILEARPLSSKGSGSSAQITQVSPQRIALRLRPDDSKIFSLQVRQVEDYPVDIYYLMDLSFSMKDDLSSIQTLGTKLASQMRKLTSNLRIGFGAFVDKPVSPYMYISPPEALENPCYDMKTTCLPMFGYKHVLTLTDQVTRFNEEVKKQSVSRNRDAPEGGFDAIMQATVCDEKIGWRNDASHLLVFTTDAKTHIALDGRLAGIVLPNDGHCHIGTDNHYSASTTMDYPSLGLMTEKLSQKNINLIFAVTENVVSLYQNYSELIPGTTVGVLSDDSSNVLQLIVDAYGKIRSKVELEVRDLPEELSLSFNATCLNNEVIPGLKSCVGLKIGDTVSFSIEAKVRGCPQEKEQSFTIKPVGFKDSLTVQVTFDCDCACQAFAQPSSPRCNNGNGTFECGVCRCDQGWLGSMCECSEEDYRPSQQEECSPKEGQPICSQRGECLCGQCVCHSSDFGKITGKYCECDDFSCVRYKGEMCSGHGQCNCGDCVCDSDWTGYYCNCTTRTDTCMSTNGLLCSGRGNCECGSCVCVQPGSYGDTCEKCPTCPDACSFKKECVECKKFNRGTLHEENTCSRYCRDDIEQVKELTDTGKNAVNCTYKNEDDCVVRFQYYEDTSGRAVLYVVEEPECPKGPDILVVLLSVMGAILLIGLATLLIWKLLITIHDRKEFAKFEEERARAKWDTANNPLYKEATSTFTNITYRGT
T2 sequence (P43406 31-885 partner): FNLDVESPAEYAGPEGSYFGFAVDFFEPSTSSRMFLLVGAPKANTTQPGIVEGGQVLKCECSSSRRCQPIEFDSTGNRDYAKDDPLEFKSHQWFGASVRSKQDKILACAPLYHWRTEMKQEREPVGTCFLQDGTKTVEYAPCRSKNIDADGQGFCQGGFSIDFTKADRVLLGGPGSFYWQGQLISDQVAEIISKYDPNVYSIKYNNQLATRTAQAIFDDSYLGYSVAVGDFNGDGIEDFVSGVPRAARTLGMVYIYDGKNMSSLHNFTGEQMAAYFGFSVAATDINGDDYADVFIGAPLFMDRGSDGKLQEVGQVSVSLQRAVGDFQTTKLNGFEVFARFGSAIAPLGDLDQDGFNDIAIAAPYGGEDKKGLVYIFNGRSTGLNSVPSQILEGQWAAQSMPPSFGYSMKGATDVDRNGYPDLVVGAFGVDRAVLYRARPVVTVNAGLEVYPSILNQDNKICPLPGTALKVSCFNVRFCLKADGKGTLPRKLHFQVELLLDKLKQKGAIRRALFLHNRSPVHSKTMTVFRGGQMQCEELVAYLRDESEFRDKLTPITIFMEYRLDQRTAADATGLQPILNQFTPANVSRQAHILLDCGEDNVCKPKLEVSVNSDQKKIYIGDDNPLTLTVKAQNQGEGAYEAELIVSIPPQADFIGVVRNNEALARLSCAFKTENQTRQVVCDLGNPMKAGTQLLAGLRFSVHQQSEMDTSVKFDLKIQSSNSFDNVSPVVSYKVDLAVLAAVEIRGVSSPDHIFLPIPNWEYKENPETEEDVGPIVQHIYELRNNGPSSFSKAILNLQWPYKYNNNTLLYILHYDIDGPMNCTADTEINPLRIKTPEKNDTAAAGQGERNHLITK
T2 sequence (P43406 887-1044 partner): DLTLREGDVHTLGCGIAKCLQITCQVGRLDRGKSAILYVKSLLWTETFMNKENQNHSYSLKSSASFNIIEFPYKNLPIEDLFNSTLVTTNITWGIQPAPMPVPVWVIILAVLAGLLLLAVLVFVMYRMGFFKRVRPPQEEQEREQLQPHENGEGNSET
Description: as §1, §2

[2] = test system: integrin αVβ3 with mutated human β3 chain; test: Antibody binding to integrin αVβ3 heterodimer with human β3 residues substituted with rat residues
Description: as §1
In preferred embodiments, the amino acid substitutions are made in the β3 subunit. In certain embodiments, human β3 residues are substituted with rat residues as described in Table 2. […] Such substitutions preferred examples but not limiting. Such substituted subunits are merely exemplary and not limiting. Any integrin αVβ3 regions identified to be responsible for antibody binding can be altered with substituted, deleted or inserted residues to characterize binding specificity of various antibodies and to screen for antibodies with the same a similar binding specificity.
In addition, the invention provides methods for identifying monoclonal antibodies that bind to the heterodimerized αVβ3 but not the αV or the β3 chains when not included in a heterodimer. […] The antibodies identified from such screening methods can be useful for the prevention, management and treatment of integrin αVβ3-mediated diseases and disorders, including but not limited to inflammatory diseases, autoimmune disorders, disorders associated with aberrant expression and/or activity of integrin αvβ3, disorders associated with abnormal bone metabolism, disorders associated with aberrant angiogenesis and cancers, or a condition or symptom associated therewith. It is also contemplated that such antibodies can be used in the methods and compositions contemplated by the present invention. […]

B1: VITAXIN®: humanized monoclonal antibody MEDI-522 (MedImmune) that immunospecifically binds to integrin αVβ3; human IgG1 subclass (antibody, chains of the INN, looked up, V domains shown)
VH: QVQLVESGGGVVQPGRSLRLSCAASGFTFSSYDMSWVRQAPGKGLEWVAKVSSGGGSTYYLDTVQGRFTISRDNSKNTLYLQMNSLRAEDTAVYYCARHLHGSFASWGQGTTVTVSS
VL: EIVLTQSPATLSLSPGERATLSCQASQSISNFLHWYQQRPGQAPRLLIRYRSQSISGIPARFSGSGSGTDFTLTISSLEPEDFAVYYCQQSGSWPLTFGGGTKVEIK
binding to mouse integrin αVβ3 (mouse integrin αVβ3): do not bind
binding to modified mouse integrin αVβ3 [1]: do bind
effect of β3 mutation on antibody binding to integrin αVβ3 ([2]; Mutation A: Glu to Gln at position 171 (E171Q)): disrupts binding
effect of β3 mutation on antibody binding to integrin αVβ3 ([2]; Mutation B: Leu and Glu to Ile and Lys at positions 173 and 174 (L173I, E174K)): disrupt binding
effect of β3 mutation on antibody binding to integrin αVβ3 ([2]; Mutations A and C combined (three substituted residues)): disrupts binding
effect of β3 mutation on antibody binding to the integrin αVβ3 heterodimer ([2]; mutation of residues 171, 173 and/or 174 of the human β3 chain): disrupt binding
